From patent publication US20210032299A1 (Eli Lilly, published 2021)
Starred links: 1 amine or outer side, 2 acyl side, 3 side chain; linkers in the order of their positions; H or OH if unused. Non-standard residues stand in square brackets, D forms with d. Groups on a side chain read outwards from the residue. No end group written: not given here. *: point of attachment. C20 diacid = O=C(O)CCCCCCCCCCCCCCCCCCC(=O)*; C18 diacid = O=C(O)CCCCCCCCCCCCCCCCC(=O)*; γGlu = O=C(O)[C@H](CCC(=O)[*:2])N[*:1]; αMeF = C[C@](N)(Cc1ccccc1)C(=O)O; 4Pal = N[C@@H](Cc1ccncc1)C(=O)O; AEEA = NCCOCCOCC(=O)O; Aib = CC(C)(N)C(=O)O

T1: human glucose-dependent insulinotropic peptide receptor (human, UniProt P48546 22-466)
T1 sequence (looked up): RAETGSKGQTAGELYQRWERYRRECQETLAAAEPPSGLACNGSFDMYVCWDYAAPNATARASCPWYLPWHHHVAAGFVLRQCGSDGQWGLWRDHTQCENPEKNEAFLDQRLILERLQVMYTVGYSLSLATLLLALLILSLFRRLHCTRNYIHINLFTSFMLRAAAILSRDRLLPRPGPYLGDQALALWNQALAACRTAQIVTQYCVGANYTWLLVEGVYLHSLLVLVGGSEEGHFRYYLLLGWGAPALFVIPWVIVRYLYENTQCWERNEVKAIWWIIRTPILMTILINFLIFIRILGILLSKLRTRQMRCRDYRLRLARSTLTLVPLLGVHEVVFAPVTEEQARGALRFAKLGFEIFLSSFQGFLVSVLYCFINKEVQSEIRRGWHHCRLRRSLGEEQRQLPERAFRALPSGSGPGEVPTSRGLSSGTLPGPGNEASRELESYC


Tests used:
Experiment in all cases: cell-based or functional assay
[1] = target: human glucagon receptor (human, UniProt P47871 26-477)
human glucagon receptor, sequence (P47871 26-477): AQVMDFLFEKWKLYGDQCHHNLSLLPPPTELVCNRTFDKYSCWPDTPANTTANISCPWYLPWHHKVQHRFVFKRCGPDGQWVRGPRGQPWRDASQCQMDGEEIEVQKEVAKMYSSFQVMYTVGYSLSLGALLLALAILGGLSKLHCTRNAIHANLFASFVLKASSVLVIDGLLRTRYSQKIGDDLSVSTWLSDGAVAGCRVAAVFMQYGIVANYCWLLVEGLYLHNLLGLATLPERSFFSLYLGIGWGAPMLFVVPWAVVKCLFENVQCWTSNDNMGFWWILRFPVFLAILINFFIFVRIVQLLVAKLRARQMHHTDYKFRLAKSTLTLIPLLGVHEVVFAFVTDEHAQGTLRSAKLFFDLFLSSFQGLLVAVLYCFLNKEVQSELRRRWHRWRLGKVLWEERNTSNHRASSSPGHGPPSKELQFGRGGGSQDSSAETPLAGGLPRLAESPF

[2] = target: T1, human glucose-dependent insulinotropic …
[3] = target: human GLP-1 receptor (human, UniProt P43220 24-463)

| Binder | hGcgR cAMP Rel EC50 [1] [nM] | hGIPR cAMP Rel EC50 [2] [nM] | hGLP1R cAMP Rel EC50 [3] [nM] |
| --- | --- | --- | --- |
| Y[Aib]EGTFISDYSI[Aib]LDKK([AEEA-AEEA-γGlu-C18 diacid])HQ[Aib]DFVE[4Pal]LLAGGPSSGAPPPS-NH2 (N-terminus assumed; SMILES CC[C@H](C)[C@H](NC(=O)[C@H](Cc1ccccc1)NC(=O)[C@@H](NC(=O)CNC(=O)[C@H](CCC(=O)O)NC(=O)C(C)(C)NC(=O)[C@@H](N)Cc1ccc(O)cc1)[C@@H](C)O)C(=O)N[C@@H](CO)C(=O)N[C@@H](CC(=O)O)C(=O)N[C@@H](Cc1ccc(O)cc1)C(=O)N[C@@H](CO)C(=O)N[C@H](C(=O)NC(C)(C)C(=O)N[C@@H](CC(C)C)C(=O)N[C@@H](CC(=O)O)C(=O)N[C@@H](CCCCN)C(=O)N[C@@H](CCCCNC(=O)COCCOCCNC(=O)COCCOCCNC(=O)CC[C@H](NC(=O)CCCCCCCCCCCCCCCCC(=O)O)C(=O)O)C(=O)N[C@@H](Cc1c[nH]cn1)C(=O)N[C@@H](CCC(N)=O)C(=O)NC(C)(C)C(=O)N[C@@H](CC(=O)O)C(=O)N[C@@H](Cc1ccccc1)C(=O)N[C@H](C(=O)N[C@@H](CCC(=O)O)C(=O)N[C@@H](Cc1ccncc1)C(=O)N[C@@H](CC(C)C)C(=O)N[C@@H](CC(C)C)C(=O)N[C@@H](C)C(=O)NCC(=O)NCC(=O)N1CCC[C@H]1C(=O)N[C@@H](CO)C(=O)N[C@@H](CO)C(=O)NCC(=O)N[C@@H](C)C(=O)N1CCC[C@H]1C(=O)N1CCC[C@H]1C(=O)N1CCC[C@H]1C(=O)N[C@@H](CO)C(N)=O)C(C)C)[C@@H](C)CC) [Example 24] | > 5000 | 0.0699 | > 5000 |
| Y[Aib]EGT[αMeF]ISDYSIALDKK([AEEA-AEEA-γGlu-C20 diacid])HQ[Aib]EFVNWLLAGGPSSGAPPPS-NH2 (N-terminus assumed; SMILES CC[C@H](C)[C@H](NC(=O)[C@H](CO)NC(=O)[C@H](Cc1ccc(O)cc1)NC(=O)[C@H](CC(=O)O)NC(=O)[C@H](CO)NC(=O)[C@@H](NC(=O)[C@](C)(Cc1ccccc1)NC(=O)[C@@H](NC(=O)CNC(=O)[C@H](CCC(=O)O)NC(=O)C(C)(C)NC(=O)[C@@H](N)Cc1ccc(O)cc1)[C@@H](C)O)[C@@H](C)CC)C(=O)N[C@@H](C)C(=O)N[C@@H](CC(C)C)C(=O)N[C@@H](CC(=O)O)C(=O)N[C@@H](CCCCN)C(=O)N[C@@H](CCCCNC(=O)COCCOCCNC(=O)COCCOCCNC(=O)CC[C@H](NC(=O)CCCCCCCCCCCCCCCCCCC(=O)O)C(=O)O)C(=O)N[C@@H](Cc1c[nH]cn1)C(=O)N[C@@H](CCC(N)=O)C(=O)NC(C)(C)C(=O)N[C@@H](CCC(=O)O)C(=O)N[C@@H](Cc1ccccc1)C(=O)N[C@H](C(=O)N[C@@H](CC(N)=O)C(=O)N[C@@H](Cc1c[nH]c2ccccc12)C(=O)N[C@@H](CC(C)C)C(=O)N[C@@H](CC(C)C)C(=O)N[C@@H](C)C(=O)NCC(=O)NCC(=O)N1CCC[C@H]1C(=O)N[C@@H](CO)C(=O)N[C@@H](CO)C(=O)NCC(=O)N[C@@H](C)C(=O)N1CCC[C@H]1C(=O)N1CCC[C@H]1C(=O)N1CCC[C@H]1C(=O)N[C@@H](CO)C(N)=O)C(C)C) [Example 25] | > 5000 | 0.0155 | 8.39 |
